Assay results published in patent US7517850B2, “Calcium phosphate nanoclusters and their applications” (priority 1999, dated 2009).
Like-named read-outs stand apart in the source and are kept apart here. Ends that are not written are not given here.

Experiments:
[1] = Test for nanocluster formation (absence of precipitation); assay type: physicochemical; conditions: standard conditions for β-casein phosphopeptide nanoclusters modified to the smallest extent; absence of precipitation = nanocluster-like particles
Excerpt: Nanocluster formation was investigated with the following phosphoproteins, phosphoprotein mixtures, phosphopeptides and phosphopeptide mixtures: • 1. Whole casein • 2. Mixtures of β- and κ-caseins • 3. β-casein 5P • 4. A commercial phosphopeptide mixture supplied by MD foods and derived from casein, containing a large number of phosphopeptides as described by Ellegard et al. (1999). • 5. A phosphopeptide mixture derived from a digestion of whole casein with protease XIV from Streptomyces griseus, and papain type IV containing αs1-casein 2P (f46-51), αs1-casein 4P (f61-70), β-casein 4P (f11-21), αs2-casein 3P (f5-12), αs2-casein 4P (f49-61) and αs2-casein 2P (f126-133). • 6. β-casein phosphopeptides 4P (f1-25) or 4P (f2-25) or 5P (f1-42) • 7. Cyanogen bromide cleavage fragments αs1-casein 2P (f1-54) or αs1-casein 6P (f61-123). • […]. Tryptic phosphopeptides αs1-casein 1P (f104-119) or αs1-casein 2P (f43-58) or αs1-casein 5P (f59-79) or αs1-casein 7P (f43-79)
A test for nanocluster formation was applied in which the standard conditions for the formation of nanoclusters from the β-casein phosphopeptide were modified to the smallest extent possible and applied to the other peptides or peptide mixtures. […] Nanoclusters were found with each of the 6 phosphopeptides and confirmed experimentally by X-ray scattering measurements.

[2] = Confirmation of nanocluster formation by small angle X-ray or neutron scattering; assay type: physicochemical
Excerpt: The formation of nanoclusters, nanocluster-like particles or larger particles composed of assemblies of nanoclusters has been established by small angle X-ray or neutron scattering experiments, as described by Holt et al. (1996, 1998).

[3] = small angle X-ray or neutron scattering; Holt et al., 1996, 1998; cited from earlier work

## αs1-casein 1P (f104-119): tryptic phosphopeptide of αs1-casein, item 8 (YKVPQLEIVPNSAEER; also: 1 phosphorylation, site not given here; UniProt P02662 119-134, looked up, fragment)
[1]
  outcome of test for nanocluster formation: No stable nanocluster solution was formed
[2]
  Conclusion (nanocluster formation): Precipitation of calcium phosphate

## αs1-casein 2P (f1-54): cyanogen bromide cleavage fragment of αs1-casein, item 7 (RPKHPIKHQGLPQEVLNENLLRFFVAPFPEVFGKEKVNELSKDIGSESTEDQAM; also: 2 phosphorylations, sites not given here; UniProt P02662 16-69, looked up, fragment)
[1]
  outcome of test for nanocluster formation: failed to dissolve

## αs1-casein 2P (f43-58): tryptic phosphopeptide of αs1-casein, item 8 (DIGSESTEDQAMEDIK; also: 2 phosphorylations, sites not given here; UniProt P02662 58-73, looked up, fragment)
[1]
  outcome of test for nanocluster formation: No stable nanocluster solution was formed
[2]
  Conclusion (nanocluster formation): Precipitation of calcium phosphate

## αs1-casein 5P (f59-79): tryptic phosphopeptide of αs1-casein, item 8 (QMEAESISSSEEIVPNSVEQK; also: 5 phosphorylations, sites not given here; UniProt P02662 74-94, looked up, fragment)
[1]
  outcome of test for nanocluster formation: Nanoclusters were formed
[2]
  Conclusion (nanocluster formation): Clear solution of stable nanoclusters in the normal

## αs1-casein 7P (f43-79): tryptic phosphopeptide of αs1-casein, item 8 (DIGSESTEDQAMEDIKQMEAESISSSEEIVPNSVEQK; also: 7 phosphorylations, sites not given here; UniProt P02662 58-94, looked up, fragment)
[1]
  outcome of test for nanocluster formation: Nanoclusters were formed
[2]
  Conclusion (nanocluster formation): Clear solution of stable nanoclusters in the normal

## β-casein phosphopeptide 4P (f1-25): β-casein phosphopeptide residues 1-25 with 4 phosphorylated residues, item 6 (RELEELNVPGEIVESLSSSEESITR; also: 4 phosphorylations, sites not given here; UniProt P02666 16-40, looked up, fragment)
[3]
  Conclusion (nanocluster formation): Monodisperse nanoclusters formed (Holt et al., 1996,

## β-casein phosphopeptide 4P (f2-25): β-casein phosphopeptide residues 2-25 with 4 phosphorylated residues, item 6 (ELEELNVPGEIVESLSSSEESITR; also: 4 phosphorylations, sites not given here; UniProt P02666 17-40, looked up, fragment)
[2]
  Conclusion (nanocluster formation): Monodisperse nanoclusters formed

## β-casein phosphopeptide 5P (f1-42): β-casein phosphopeptide residues 1-42 with 5 phosphorylated residues, item 6 (RELEELNVPGEIVESLSSSEESITRINKKIEKFQSEEQQQTE; also: 5 phosphorylations, sites not given here; UniProt P02666 16-57, looked up, fragment)
[3]
  Conclusion (nanocluster formation): Monodisperse nanoclusters formed (Holt et al., 1996,

B1: β-casein 5p: β-casein phosphoprotein with 5 phosphorylated residues, item 3 (protein, UniProt P02666 16-224, looked up)
Beta-casein: RELEELNVPGEIVESLSSSEESITRINKKIEKFQSEEQQQTEDELQDKIHPFAQTQSLVYPFPGPIPNSLPQNIPPLTQTPVVVPPFLQPEVMGVSKVKEAMAPKHKEMPFPKYPVEPFTESQSLTLTDVENLHLPLPLLQSWMHQPHQPLPPTVMFPPQSVLSLSQSKVLPVPQKAVPYPQRDMPIQAFLLYQEPVLGPVRGPFPIIV
modifications: 5 phosphorylations
notes: β-casein phosphoprotein with 5 phosphorylated residues, item 3
[1]
  outcome of test for nanocluster formation: underwent an unlimited aggregation
[2]
  Conclusion (nanocluster formation): Uncontrolled precipitation of the β-casein aggregates
